Experiments:
[1] = target: Thyroid Stimulating Hormone (TSH) (UniProt P01215); test: FRET competition on Alexa488-labelled antigen; competitor BHQ-labelled TSH Ab 544
[2] = target: Thyroid Stimulating Hormone (TSH) (UniProt P01215); test: FRET competition on Alexa488-labelled antigen; competitor BHQ-labelled T25C
[3] = target: Follicle Stimulating Hormone (FSH) (UniProt P01215); test: i-STAT sandwich cartridge, 0.4 mIU/L TSH plus FSH, signal gain over TSH alone; capture ME130, detection 5409
[4] = target: Thyroid Stimulating Hormone (TSH) (UniProt P01215); test: i-STAT sandwich cartridge with TSH; capture beads ME130, detection conjugate 5409
[5] = target: Thyroid Stimulating Hormone (TSH) (UniProt P01215); test: FRET competition on Alexa488-labelled antigen; competitor BHQ-labelled 414B
[6] = target: Chorionic Gonadotropin (CG) (UniProt P01215); test: i-STAT sandwich cartridge, 0.4 mIU/L TSH plus CG, signal gain over TSH alone; capture ME130, detection 5409
Luteinizing Hormone (LH) [7] = target: Luteinizing Hormone (LH) (UniProt P01215); test: FRET quenching titration, BHQ-10 antibody and Alexa Fluor 488 antigen
[8] = target: Follicle Stimulating Hormone (FSH) (UniProt P01215); test: as above
[9] = target: Chorionic Gonadotropin (CG) (UniProt P01215); test: as above
[10] = target: Thyroid Stimulating Hormone (TSH) (UniProt P01215); test: as above
[11] = target: Thyroid Stimulating Hormone (TSH) (UniProt P01215); test: FRET competition on Alexa488-labelled antigen; competitor BHQ-labelled ME130
[12] = target: Thyroid Stimulating Hormone (TSH) (UniProt P01215); test: i-STAT sandwich cartridge with TSH; capture beads ME130, detection conjugate T25C
[13] = target: Thyroid Stimulating Hormone (TSH) (UniProt P01215); test: i-STAT sandwich cartridge with TSH; capture beads ME130, detection conjugate M4
[14] = target: Thyroid Stimulating Hormone (TSH) (UniProt P01215); test: FRET competition on Alexa488-labelled antigen; competitor BHQ-labelled M4
[15] = target: Thyroid Stimulating Hormone (TSH) (UniProt P01215); test: i-STAT sandwich cartridge with TSH; capture beads ME130, detection conjugate TSH Ab 544
Luteinizing Hormone (LH) [16] = target: Luteinizing Hormone (LH) (UniProt P01215); test: i-STAT sandwich cartridge, 0.4 mIU/L TSH plus LH, signal gain over TSH alone; capture ME130, detection 5409
[17] = target: Thyroid Stimulating Hormone (TSH) (UniProt P01215); test: FRET competition on Alexa488-labelled antigen; competitor BHQ-labelled 5409
[18] = target: Thyroid Stimulating Hormone (TSH) (UniProt P01215); test: i-STAT sandwich cartridge with TSH; capture beads M4, detection conjugate 5409
[19] = target: Thyroid Stimulating Hormone (TSH) (UniProt P01215); test: i-STAT sandwich cartridge with TSH; capture beads M4, detection conjugate T25C
[20] = target: Thyroid Stimulating Hormone (TSH) (UniProt P01215); test: i-STAT sandwich cartridge with TSH; capture beads M4, detection conjugate ME130
[21] = target: Thyroid Stimulating Hormone (TSH) (UniProt P01215); test: i-STAT sandwich cartridge with TSH; capture beads M4, detection conjugate TSH Ab 544
[22] = target: Thyroid Stimulating Hormone (TSH) (UniProt P01215); test: i-STAT sandwich cartridge with TSH; capture beads 414B, detection conjugate TSH Ab 544
[23] = target: Follicle Stimulating Hormone (FSH) (UniProt P01215); test: i-STAT sandwich cartridge, 0.4 mIU/L TSH plus FSH, signal gain over TSH alone; capture 414B, detection TSH Ab 544
Luteinizing Hormone (LH) [24] = target: Luteinizing Hormone (LH) (UniProt P01215); test: i-STAT sandwich cartridge, 0.4 mIU/L TSH plus LH, signal gain over TSH alone; capture 414B, detection 5409
[25] = target: Thyroid Stimulating Hormone (TSH) (UniProt P01215); test: i-STAT sandwich cartridge with TSH; capture beads 414B, detection conjugate M4
[26] = target: Thyroid Stimulating Hormone (TSH) (UniProt P01215); test: i-STAT sandwich cartridge with TSH; capture beads 414B, detection conjugate 5409
[27] = target: Follicle Stimulating Hormone (FSH) (UniProt P01215); test: i-STAT sandwich cartridge, 0.4 mIU/L TSH plus FSH, signal gain over TSH alone; capture 414B, detection 5409
[28] = target: Chorionic Gonadotropin (CG) (UniProt P01215); test: i-STAT sandwich cartridge, 0.4 mIU/L TSH plus CG, signal gain over TSH alone; capture 414B, detection 5409
[29] = target: Chorionic Gonadotropin (CG) (UniProt P01215); test: i-STAT sandwich cartridge, 0.4 mIU/L TSH plus CG, signal gain over TSH alone; capture 414B, detection TSH Ab 544
Luteinizing Hormone (LH) [30] = target: Luteinizing Hormone (LH) (UniProt P01215); test: i-STAT sandwich cartridge, 0.4 mIU/L TSH plus LH, signal gain over TSH alone; capture 414B, detection TSH Ab 544
[31] = target: Chorionic Gonadotropin (CG) (UniProt P01215); test: i-STAT sandwich cartridge, 0.4 mIU/L TSH plus CG, signal gain over TSH alone; capture 5409, detection ME130
[32] = target: Thyroid Stimulating Hormone (TSH) (UniProt P01215); test: i-STAT sandwich cartridge with TSH; capture beads 5409, detection conjugate T25C
[33] = target: Thyroid Stimulating Hormone (TSH) (UniProt P01215); test: i-STAT sandwich cartridge with TSH; capture beads 5409, detection conjugate TSH Ab 544
Luteinizing Hormone (LH) [34] = target: Luteinizing Hormone (LH) (UniProt P01215); test: i-STAT sandwich cartridge, 0.4 mIU/L TSH plus LH, signal gain over TSH alone; capture 5409, detection ME130
[35] = target: Follicle Stimulating Hormone (FSH) (UniProt P01215); test: i-STAT sandwich cartridge, 0.4 mIU/L TSH plus FSH, signal gain over TSH alone; capture 5409, detection ME130
[36] = target: Thyroid Stimulating Hormone (TSH) (UniProt P01215); test: i-STAT sandwich cartridge with TSH; capture beads 5409, detection conjugate M4
Luteinizing Hormone (LH) [37] = target: Luteinizing Hormone (LH) (UniProt P01215); test: i-STAT sandwich cartridge, 0.4 mIU/L TSH plus LH, signal gain over TSH alone; capture 5409, detection T25C
[38] = target: Thyroid Stimulating Hormone (TSH) (UniProt P01215); test: i-STAT sandwich cartridge with TSH; capture beads 5409, detection conjugate ME130
[39] = target: Follicle Stimulating Hormone (FSH) (UniProt P01215); test: i-STAT sandwich cartridge, 0.4 mIU/L TSH plus FSH, signal gain over TSH alone; capture 5409, detection T25C
[40] = target: Chorionic Gonadotropin (CG) (UniProt P01215); test: i-STAT sandwich cartridge, 0.4 mIU/L TSH plus CG, signal gain over TSH alone; capture 5409, detection T25C
[41] = target: Thyroid Stimulating Hormone (TSH) (UniProt P01215); test: i-STAT sandwich cartridge with TSH; capture beads T25C, detection conjugate 5409
[42] = target: Thyroid Stimulating Hormone (TSH) (UniProt P01215); test: i-STAT sandwich cartridge with TSH; capture beads T25C, detection conjugate ME130
[43] = target: Chorionic Gonadotropin (CG) (UniProt P01215); test: i-STAT sandwich cartridge, 0.4 mIU/L TSH plus CG, signal gain over TSH alone; capture T25C, detection 5409
[44] = target: Thyroid Stimulating Hormone (TSH) (UniProt P01215); test: i-STAT sandwich cartridge with TSH; capture beads T25C, detection conjugate 414B
[45] = target: Thyroid Stimulating Hormone (TSH) (UniProt P01215); test: i-STAT sandwich cartridge with TSH; capture beads T25C, detection conjugate TSH Ab 544
Luteinizing Hormone (LH) [46] = target: Luteinizing Hormone (LH) (UniProt P01215); test: i-STAT sandwich cartridge, 0.4 mIU/L TSH plus LH, signal gain over TSH alone; capture T25C, detection 5409
[47] = target: Thyroid Stimulating Hormone (TSH) (UniProt P01215); test: i-STAT sandwich cartridge with TSH; capture beads T25C, detection conjugate M4
[48] = target: Follicle Stimulating Hormone (FSH) (UniProt P01215); test: i-STAT sandwich cartridge, 0.4 mIU/L TSH plus FSH, signal gain over TSH alone; capture T25C, detection 5409

| Substance | relative fluorescence [1] | relative fluorescence [2] | relative fluorescence [5] | Kd (Luteinizing Hormone (LH) [7]) | Kd [8] | Kd [9] | Kd [10] | relative fluorescence [11] | relative fluorescence [14] | relative fluorescence [17] | other results |
| --- | --- | --- | --- | --- | --- | --- | --- | --- | --- | --- | --- |
| AbCAM ME-130 mouse monoclonal antibody | 0.82 normalized | 0.88 normalized | 0.99 normalized | 54 nM | 70 nM | 45 nM | 0.04 nM | 1 normalized | 0.77 normalized | 0.82 normalized | FSH CR (%) [3]: 3.9%; electrochemical current [4]: 54.7 nA; CG CR (%) [6]: 11.8%; electrochemical current [12]: -0.1 nA; electrochemical current [13]: 50.5 nA; electrochemical current [15]: 10.8 nA; LH CR (%) (Luteinizing Hormone (LH) [16]): 11.1% |
| Fitzgerald 10C-CR2151M4 mouse monoclonal antibody | 0.98 normalized | 0.74 normalized | 0.9 normalized | 300 nM | 210 nM | 554 nM | 0.18 nM | 0.76 normalized | 1 normalized | 0.94 normalized | electrochemical current [18]: 20.7 nA; electrochemical current [19]: 22.5 nA; electrochemical current [20]: 39.9 nA; electrochemical current [21]: 0 nA |
| TSH capture mouse monoclonal antibody Biospacific Cat#5409 SPTNE-5 | 0.93 normalized | 0.78 normalized | 0.88 normalized | 1000 nM | 1000 nM | 500 nM | 0.1 nM | 0.78 normalized | 0.9 normalized | 1 normalized | CG CR (%) [31]: 0.78%; electrochemical current [32]: 34.6 nA; electrochemical current [33]: 1.41 nA; LH CR (%) (Luteinizing Hormone (LH) [34]): 10.1%; FSH CR (%) [35]: 2.43%; electrochemical current [36]: 15.2 nA; LH CR (%) (Luteinizing Hormone (LH) [37]): 3.76%; electrochemical current [38]: 53.6 nA; FSH CR (%) [39]: 0.65%; CG CR (%) [40]: 0.96% |

Now those with a lower Kd (Luteinizing Hormone (LH) [7]), led by results:

| relative fluorescence [1] | relative fluorescence [2] | relative fluorescence [5] | Kd (Luteinizing Hormone (LH) [7]) | Kd [8] | Kd [9] | Kd [10] | relative fluorescence [11] | relative fluorescence [14] | relative fluorescence [17] | Substance | other results |
| --- | --- | --- | --- | --- | --- | --- | --- | --- | --- | --- | --- |
| 0.83 normalized | 0.76 normalized | 1 normalized | 0.05 nM | 0.1 nM | 0.05 nM | 0.04 nM | 0.86 normalized | 0.75 normalized | 0.81 normalized | Seradyn anti-alpha-LH monoclonal antibody Cat#MIT0414B | electrochemical current [22]: 10.2 nA; FSH CR (%) [23]: 219%; LH CR (%) (Luteinizing Hormone (LH) [24]): 348%; electrochemical current [25]: 41.3 nA; electrochemical current [26]: 40.3 nA; FSH CR (%) [27]: 260%; CG CR (%) [28]: 84.6%; CG CR (%) [29]: 39.2%; LH CR (%) (Luteinizing Hormone (LH) [30]): 467% |
| 0.97 normalized | 1 normalized | 0.97 normalized | 35 nM | 300 nM | 40 nM | 0.08 nM | 0.97 normalized | 0.92 normalized | 0.95 normalized | signaling mouse monoclonal antibody Fitzgerald Cat#10-T25C | electrochemical current [41]: 49.7 nA; electrochemical current [42]: 0.68 nA; CG CR (%) [43]: 13.7%; electrochemical current [44]: 0.82 nA; electrochemical current [45]: 0.83 nA; LH CR (%) (Luteinizing Hormone (LH) [46]): 9.89%; electrochemical current [47]: 40.9 nA; FSH CR (%) [48]: 6.25% |

Source: patent US9575076
